According to patent publication US6660837B1, “Modified protein derived from protein kinase N” (Kirin Beer Kabushiki Kaisha, priority 1995, dated 2003):

What was measured:
[1] = biological target: T1, head-rod domain of NFL (Homo sapiens, UniProt P07196); experiment: In vitro binding of in vitro translated PKN to GST-NFL; details: GST pull-down
T1 construct: made in house; host or cells: bacteria (bacterially synthesized)
T1 sequence (P07196 1-349): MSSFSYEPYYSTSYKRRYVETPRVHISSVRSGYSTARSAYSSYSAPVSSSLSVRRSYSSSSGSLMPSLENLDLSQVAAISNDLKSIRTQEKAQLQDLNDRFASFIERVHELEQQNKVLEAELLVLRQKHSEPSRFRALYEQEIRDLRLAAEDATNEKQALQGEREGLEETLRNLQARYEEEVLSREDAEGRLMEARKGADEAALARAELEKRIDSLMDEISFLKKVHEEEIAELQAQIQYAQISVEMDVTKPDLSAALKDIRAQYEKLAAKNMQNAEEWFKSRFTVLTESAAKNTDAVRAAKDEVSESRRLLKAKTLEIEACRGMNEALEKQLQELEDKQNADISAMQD
Excerpt: For in vitro transcription, truncated human PKN was made as follows; Expression vector pPKNN2 for N-terminal region of PKN (the amino acid sequence 1-474 in SEQ ID NO: 1, this region was designated as “PKNN2”) was made by digesting phPKN-H4 (a plasmid containing human PKN cDNA in pBluescript II SK (Mukai, H. & Ono, Y., Biochem. Biophys. Res. Commun. 199, 897-904 (1994)) with Bst EII, and filling in the ends with T4 DNA polymerase, and self-legation. This removed the original amino acid sequences C-terminal downstream of the BstEII site (1425 nucleotides from initiating ATG codon), and a stop codon was created in the plasmid sequence. Fragment coding for the amino acid sequence 614-942 in SEQ ID NO: 1, (This region was designated as “PKNC2”) containing the conserved catalytic domain of human PKN was made by PCR amplification. Expression vector pPKNC2 was made by subcloning this fragment into pRc/CMV (Invitfrogen Corp.). These plasmids were linealized by cutting with XbaI, and CRNA was transcribed using T7 RNA polymerase. For NFL, pBL (Nakagawa, T. et al., J. Cell. Biol. 129, 411-429 (1995)) was linealized by cutting with HindIII, and CRNA was transcribed using T3 RNA polymerase. For in vitro translation, these cRNAs were translated in rabbit reticulocyte lysate (Promega) in the presence of [^35S] methionine. […]

[2] = test system: head-rod domain of vimentin; experiment: Yeast two-hybrid, PKN N-terminal region with vimentin; format: binding; details: data not shown
Excerpt: Specificity of the interaction between PKN and various NFs was investigated by measuring the ability of the two-hybrid constructs, pBTM116(Vojtek, A. B. et al., Cell, 74, 205-214 (1993)) (instead of pGBT9)-PKN and pVP16 (Vojtek, A. B. et al., Cell, 74, 205-214 (1993)) (instead of pGAD10)-NF or in reverse, to support lacZ expression in L40 cells.
To determine whether N-terminal region of PKN binds to NFM or NFH as well as NFL, corresponding region to the head-rod domain of NFM or NFH was ligated to pVP16 and lacZ expression was measured in two-hybrid system. The N-terminal region of PKN bound to each head-rod domain of NF subunit (FIG. 11(B)), and also interacted with the corresponding head-rod domain of vimentin, a ubiquitously expressed member of intermediate filament, in two-hybrid system (data not shown).

In the case of “N-terminal region of PKN: N-terminal regulatory region of human PKN: 1-540 (PKNN1) in two-hybrid and GST fusions, 1-474 when in vitro translated”, the “binding to head-rod domain of NFL in vitro” value [1] is reported as “bound” and the “interaction with head-rod domain of vimentin in two-hybrid system” value [2] is reported as “interacted”.
